Numbering of substitutions follows the chain as printed.
What was measured:
Experiment in all cases: MST
Conditions in all cases: 25 mM Tris-HCl pH 8.0, 150 mM NaCl (150 mM LiCl for Sc1 LiCl), 1 mM DTT, 0.1 mg/ml BSA; 20 nM Cy5-RNA; about 2 min incubation; temperature not stated; low values mean tight binding
[1] = target: T1, AtBnGRP7 (Arabidopsis thaliana / Brassica napus chimera) (UniProt Q03250)
T1 sequence: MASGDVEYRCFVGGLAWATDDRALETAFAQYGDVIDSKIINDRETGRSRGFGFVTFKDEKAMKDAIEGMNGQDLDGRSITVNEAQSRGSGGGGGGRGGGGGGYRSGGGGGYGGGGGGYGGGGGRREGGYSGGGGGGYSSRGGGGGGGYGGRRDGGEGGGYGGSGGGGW

[2] = target: T2, AtGRP7 (Arabidopsis thaliana) (UniProt Q03250)
T2 sequence: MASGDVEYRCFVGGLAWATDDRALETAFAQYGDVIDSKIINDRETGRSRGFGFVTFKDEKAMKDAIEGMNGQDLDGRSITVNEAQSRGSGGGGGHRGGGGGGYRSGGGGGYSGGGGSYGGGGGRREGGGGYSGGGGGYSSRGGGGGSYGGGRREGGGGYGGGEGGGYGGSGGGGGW

[3] = target: T3, AtGRP7StoE S132E;S139E (Arabidopsis thaliana) (UniProt Q03250)
T3 sequence: T2 sequence with S132E, S139E

[4] = target: T4, AtGRP7StoG S132G;S139G (Arabidopsis thaliana) (UniProt Q03250)
T4 sequence: T2 sequence with S132G, S139G

[5] = target: T5, AtGRP7YtoE Y103E;Y111E;Y118E;Y131E;Y138E;Y148E;Y159E;Y167E (Arabidopsis thaliana) (UniProt Q03250)
T5 sequence: T2 sequence with Y103E, Y111E, Y118E, Y131E, Y138E, Y148E, Y159E, Y167E

[6] = target: T6, AtGRP7YtoG Y103G;Y111G;Y118G;Y131G;Y138G;Y148G;Y159G;Y167G (Arabidopsis thaliana) (UniProt Q03250)
T6 sequence: T2 sequence with Y103G, Y111G, Y118G, Y131G, Y138G, Y148G, Y159G, Y167G

BnGRP7 (Brassica napus) = target: T7, BnGRP7 (Brassica napus) (UniProt A0A078J5Z4)
T7 sequence: T1 sequence with G4P, A29S, Y31F, I35L, A61S

[7] = target: T8, AtGRP7short (Arabidopsis thaliana) (UniProt Q03250)
T8 sequence: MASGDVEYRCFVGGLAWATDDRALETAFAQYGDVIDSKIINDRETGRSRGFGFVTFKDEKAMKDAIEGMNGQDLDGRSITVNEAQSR

AtCOR15A gave a Kd [1] of 0.741 µM, a Kd [2] of 0.224 µM and a Kd [3] of 0.738 µM. For the same substance, the Kd [4] was 2.23 µM, the Kd [5] was 23.4 µM and the Kd [6] was 3.75 µM. It also gave a Kd (BnGRP7 (Brassica napus)) of 0.323 µM.
“GGAUGUCUGAAGUUGAGUACCGGUGCUUUGUCGGCGGCCUUGCCUGGGCCACCAAUGAUGAAGAUCUUCAAAGGACGUUCUCACAGUUCGGCGACGUUAUCGAUUCUAAGAUCAUUAACGACCGCGAGAGUGGAAGAUCAAGGGGAUUCGGAUUCGUCACCUUCAAGGACGAGAAAGCCAUGAGGGAUGCGAUUGAAGAGAUGAACGGUAAAGAGCUCGAUGGACGUGUCAUCACCGUGAACGAGGCUCAGUCGAGAGGUAGCGGCGGUGGCGGAGGAGGCCGUGGUGGAAGCGGUGGUGGUUACCGCAGCGGAGGCGGUGGUGGAUACUCAGGAGGCGGUGGCGGCGGAUACUCAGGAGGAGGCGGUGGUGGUUACGAGAGACGUAGCGGAGGUUACGGAUCUGGUGGAGGCGGUGGUGGCCGAGGAUACGGUGGUGGUGGACGCCGUGAGGGAGGUGGCUACGGAGGCGGUGAUGGUGGAAGUUACGGAGGCGGUGGUGGCGGCUGGUAA [AtGRP8]” was tested, and the Kd [1] was 0.135 µM, the Kd [2] was 0.177 µM and the Kd [3] was 0.937 µM. For the same substance, the Kd [4] was 0.493 µM, the Kd [5] was 2.79 µM and the Kd [6] was 0.381 µM. The Kd (BnGRP7 (Brassica napus)) was 9.16 µM.
“GGAUUUGCGCAUUAAACCAAAAAGUGUCACGUGAUAUGUCCCCAACCACUACGAAUUUUAACUACAGAUUUAACCAUGGUUAAACCAGAAUUCACGUAAACCGACUCUAAACCUAGAAAAUAUCUAAACCUUGGUUAAUAUCUCAGCCCCCUUAUAAAUAACGAGACUUCGUCUACAUCGUUCUACACAUCUCACUGCUCACUACUCUCACUGUAAUCCCUUAGAUCUUCUUUUCAAAUUUCAAUGGCGUCCGGUGAUGUUGAGUAUCGGUGCUUCGUUGGAGGUCUAGCAUGGGCCACUGAUGACAGAGCUCUUGAGACUGCCUUCGCUCAAUACGGCGACGUUAUUGAUUCCAAGGUCUGUUACACGCCGAGAUCGGACUCCGAGUGAUAUCGAUGAUCUCAUCCUCGACGGAUCUGUUCCGAUCUUGUGUUUCUCUGUUACUUGAUUCGAUUACUCUGUUACUAUUCUCGUUCUUUGUUACUACUACUACUACUACUGUUACUUGUAUUUUCCCAAAUCGGUACGUUCAUCUUCCUGCUUCUGUGAGCCCGGAGAUCGAUCGGAUUUUUUUGUAUUUUGUAUAUUUGUUGUAGAUCUAAAUGCUUUUGUUCAGUUUUGUUGGAUUGUUUUGCUGAUCUGGUUUUUGUAUUAUUUGGAUAACAGAUCAUUAACGAUCGUGAGACUGGAAGAUCAAGGGGAUUCGGAUUCGUCACCUUCAAGGAUGAGAAAGCCAUGAAGGAUGCGAUUGAGGGAAUGAACGGACAAGAUCUCGAUGGCCGUAGCAUCACUGUUAACGAGGCUCAGUCACGAGGAAGCGGUGGCGGCGGAGGCCACCGUGGAGGUGGUGGCGGUGGAUACCGCAGCGGCGGUGGUGGAGGUUACUCCGGUGGAGGUGGUAGCUACGGAGGUGGCGGCGGUAGACGCGAGGGUGGAGGAGGAUACAGCGGCGGCGGCGGCGGUUACUCCUCAAGAGGUGGUGGUGGCGGAAGCUACGGUGGUGGAAGACGUGAGGGAGGAGGAGGAUACGGUGGUGGUGAAGGAGGAGGUUACGGAGGAAGCGGUGGUGGUGGAGGAUGGUAAUUCCUUUAAUUAGGUUUGGGAUUACCAAUGAAUGUUCUCUCUCUCGCUUGUUAUGCUUCUACUUGGUUUUGUGUGUUCUCUAUUUUGUUCUGGUUCUGCUUUAGAUUUGAUGUAACAGUUCGUGAUUAGGUAUUUUGGUAUCUGGAAACGUAAUGUUAAGUCACUUGUCAUUCUCUAAAUAACAAAUUUCUUCGGAGAUAUUAUCUCUGUUGAUUGAUUCUAUCAUCUAAAUUUCGGAAAUGCUAAUCGGAUACCGGAAUGGUGCCUUUGUUACGAUUGAGUUACUUACAUCACUGAUACAACAAUGAAGUACUUACUGAUUAUCUUUAUACCAUUCACCACACUACCUUUGAUAUUCAACAAUGAAGUAGAAACCUAUUUGGUUCAUUCGCA [AtGRP7]” was tested, and the Kd [1] was 0.172 µM, the Kd [2] was 0.364 µM and the Kd [3] was 1.79 µM. It also gave a Kd [4] of 0.606 µM, a Kd [5] of 21.3 µM and a Kd [6] of 19.3 µM. The Kd (BnGRP7 (Brassica napus)) was 16.2 µM.
For UGGAGAAGCAGGGCACGUGCA [miR164], the Kd [2] was 0.042 µM, the Kd [7] was 5.93 µM and the Kd (BnGRP7 (Brassica napus)) was 0.021 µM.
“GGCUCGAAACGAGGAGAAAAAAUCAUUAGUUAUCGAAAAUGCUCACAUGAUGUGGGCCUAACCACUAACCCAAUUAACCACACAUCUUAAUCAGAGUAAGUUGAAACAAAUCUUUCAGCAAACCCUAGAAAACAUGUUUAACCCUAGUUAUUACGUCACACCUGUUCUAUAAAUUAAGGCUGCGUCUUAUCACCUCAAAUCACAUAAGUCUCUCUCUUACAUUUUGAAACCCUAAUUUCUCUUCUUUUCCCCAAAAAAAAAUGUCUGAAGUUGAGUACCGGUGCUUUGUCGGCGGCCUUGCCUGGGCCACCAAUGAUGAAGAUCUUCAAAGGACGUUCUCACAGUUCGGCGACGUUAUCGAUUCUAAGGUCUGUUACACGAGAGAUCGGUCUCCCGGAUCGAGCCGAUUCCGAUGAUUCUGAUCCUCGACGGAUCUGAUUCCGAUCUGUUUCUCUGUUACUUGAUUCGAUUACUGUUACUAUGUUCUCUCUCGUUCUUUGUUACUGUUACUUAAUUUGUCCCAUCGGUACGUUCAUCUUCCUGCUUCUAUGAGCUCGGAGAUCGAUCGAUUUUUGCUUUAUAUUCAUCGCUUUGUUUUAUAUUCCUUCCACGAUUGUUUUUGCUGAUGUGUAUGAUUUUGUUUGUUUACAGAUCAUUAACGACCGCGAGAGUGGAAGAUCAAGGGGAUUCGGAUUCGUCACCUUCAAGGACGAGAAAGCCAUGAGGGAUGCGAUUGAAGAGAUGAACGGUAAAGAGCUCGAUGGACGUGUCAUCACCGUGAACGAGGCUCAGUCGAGAGGUAGCGGCGGUGGCGGAGGAGGCCGUGGUGGAAGCGGUGGUGGUUACCGCAGCGGAGGCGGUGGUGGAUACUCAGGAGGCGGUGGCGGCGGAUACUCAGGAGGAGGCGGUGGUGGUUACGAGAGACGUAGCGGAGGUUACGGAUCUGGUGGAGGCGGUGGUGGCCGAGGAUACGGUGGUGGUGGACGCCGUGAGGGAGGUGGCUACGGAGGCGGUGAUGGUGGAAGUUACGGAGGCGGUGGUGGCGGCUGGUAAUCAAAGAUAGAGUUGUUUGCGUGCUGCUGCUCUGUUUUUGGUUUAGAUUUGGUUUUGUGUCACCACUUCUGGUUUGGUUAUCGUUCGUUUGGUUUACUUUUUUGAUGAAACAGUUUCGUUUAAGUCUUCUUUGUCUGGAACGAAAUGUUAAUUCGCGUGUUGUUUACUAAAUUUAUAACGUUUCCUUUUAACCAGAUUCGAGAUUUUCCCUCAAAUAAUUUAUCUUGUUAGACACAUGUAUUUAAUCGAACAGCAGCUAAAGGAUUCAAAUGAUUUUCUUAUCAAUAAUUACUAUAGUUUGAAAUUGAUUAGUUCUUUAACUUUUGACCUACCAAUA [AtGRP8]” gave a Kd [1] of 0.312 µM, a Kd [2] of 0.156 µM and a Kd [3] of 0.923 µM. For the same substance, the Kd [4] was 1.37 µM, the Kd [6] was 3.39 µM and the Kd (BnGRP7 (Brassica napus)) was 0.502 µM.
“GGAUGGCGAUGUCUUUCUCAGGAGCUGUUCUCACUGGUAUGGCUUCUUCUUUCCACAGCGGAGCCAAGCAGAGCAGCUUCGGCGCUGUCAGAGUCGGCCAGAAAACUCAGUUCGUCGUCGUUUCUCAACGCAAGAAGUCGUUGAUCUACGCCGCUAAAGGUGACGGCAACAUCCUCGAUGACCUCAACGAGGCCACAAAGAAAGCUUCAGAUUUCGUGACGGAUAAAACAAAAGAGGCAUUAGCAGAUGGUGAGAAAGCGAAAGACUACGUUGUUGAAAAAAACAGUGAAACCGCAGAUACAUUGGGUAAAGAAGCUGAGAAAGCUGCGGCGUAUGUGGAGGAGAAAGGAAAAGAAGCCGCAAACAAGGCGGCAGAGUUCGCGGAGGGUAAAGCAGGAGAGGCUAAGGAUGCCACAAAGUAG [AtCOR15A]” was tested, and the Kd [1] was 0.548 µM, the Kd [2] was 0.062 µM and the Kd [3] was 2.47 µM. For the same substance, the Kd [4] was 2.3 µM, the Kd [6] was 2.7 µM and the Kd (BnGRP7 (Brassica napus)) was 0.153 µM.
UCUUGUUCUGGUUUGGUUUUGAAC [Bn-miRnovel2] was tested, and the Kd [1] was 0.035 µM, the Kd [2] was 0.26 µM and the Kd [3] was 0.029 µM. For the same substance, the Kd [4] was 0.022 µM, the Kd [5] was 0.267 µM and the Kd [6] was 0.041 µM. It also gave a Kd [7] of 4.49 µM and a Kd (BnGRP7 (Brassica napus)) of 0.0058 µM.
